Molecular target: NpuN (cysteine-free, C.F.), N-terminal Npu DnaE intein segment with His tag and three C-terminal cysteines, coupled to SulfoLink resin (Nostoc punctiforme)
Test: cell-based or functional assay

NpuC^HN-SK^C, C-terminal intein segment with serine to histidine mutation fused to streptokinase with cysteine as +1 residue (from UniProt P00779 27-440)
cleaving percentage (C-terminal cleavage, SDS-PAGE), in solution, room temperature, pH 8.5, 1 hour: > 50%
